How the values were obtained:
[1] = molecular target: T1, human CD19 on CHO-K1-human CD19 cells (human, UniProt P15391 20-556); assay: FACS on CHO-K1-human CD19 cells
T1 construct: whole, on cells; also called CHO-K1-human CD19-2C8
T1 sequence (looked up): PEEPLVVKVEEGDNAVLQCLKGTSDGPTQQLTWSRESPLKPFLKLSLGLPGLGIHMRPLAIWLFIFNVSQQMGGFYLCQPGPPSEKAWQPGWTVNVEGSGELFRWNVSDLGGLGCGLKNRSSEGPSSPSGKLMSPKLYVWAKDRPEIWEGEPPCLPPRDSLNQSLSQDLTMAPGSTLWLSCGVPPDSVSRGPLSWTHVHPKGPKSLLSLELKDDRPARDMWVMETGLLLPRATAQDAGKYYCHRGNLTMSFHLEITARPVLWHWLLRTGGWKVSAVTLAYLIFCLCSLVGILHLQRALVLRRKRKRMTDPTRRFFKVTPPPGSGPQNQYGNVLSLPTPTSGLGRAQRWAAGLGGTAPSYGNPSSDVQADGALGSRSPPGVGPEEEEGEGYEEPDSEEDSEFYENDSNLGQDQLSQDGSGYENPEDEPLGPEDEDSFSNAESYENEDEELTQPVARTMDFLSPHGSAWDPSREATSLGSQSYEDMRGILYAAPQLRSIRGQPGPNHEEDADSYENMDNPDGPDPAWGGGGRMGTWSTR

[2] = molecular target: T2, monkey CD19 on HEK293T-monkey CD19 cells (monkey); assay: FACS on HEK293T-monkey CD19 cells
T2 construct: whole, on cells
Summary of the method: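 Cells blocked in PBS + 2% (w/w) BSA at 2×10⁶ cells/ml, then incubated with test antibody on ice for 2 h. After washes, binding read by flow cytometry as mean fluorescence intensity (MFI). EC50 from fitted MFI curves. Parental HEK293T cells run by the same method.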

human CD19 on Raji cells = molecular target: T3, human CD19 on Raji cells (human, UniProt P15391 20-556); assay: FACS on Raji cells
T3 construct: whole, on cells
T3 sequence (looked up): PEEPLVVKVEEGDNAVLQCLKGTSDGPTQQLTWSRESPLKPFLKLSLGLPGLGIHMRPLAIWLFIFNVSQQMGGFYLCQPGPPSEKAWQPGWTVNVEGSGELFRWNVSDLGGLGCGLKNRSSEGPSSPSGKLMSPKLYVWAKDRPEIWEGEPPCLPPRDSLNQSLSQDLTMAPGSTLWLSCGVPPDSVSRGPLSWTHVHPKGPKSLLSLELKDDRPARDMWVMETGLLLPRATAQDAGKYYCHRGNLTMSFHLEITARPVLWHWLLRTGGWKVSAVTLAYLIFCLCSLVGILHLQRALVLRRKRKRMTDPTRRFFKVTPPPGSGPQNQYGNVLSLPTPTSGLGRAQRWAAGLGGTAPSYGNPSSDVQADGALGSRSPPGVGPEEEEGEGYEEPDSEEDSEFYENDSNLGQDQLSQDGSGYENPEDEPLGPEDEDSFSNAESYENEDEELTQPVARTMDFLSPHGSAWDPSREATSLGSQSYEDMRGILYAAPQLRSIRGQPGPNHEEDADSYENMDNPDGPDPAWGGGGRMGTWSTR

[3] = molecular target: T4, cynomolgus monkey CD19 on peripheral blood B cells (cynomolgus monkey (Macaca fascicularis), UniProt A0A2K5W8L9 20-557); assay: FACS, cynomolgus PBMC, CD20+ B cells
T4 construct: whole, on cells; also called cynomolgus monkey B cells
T4 sequence: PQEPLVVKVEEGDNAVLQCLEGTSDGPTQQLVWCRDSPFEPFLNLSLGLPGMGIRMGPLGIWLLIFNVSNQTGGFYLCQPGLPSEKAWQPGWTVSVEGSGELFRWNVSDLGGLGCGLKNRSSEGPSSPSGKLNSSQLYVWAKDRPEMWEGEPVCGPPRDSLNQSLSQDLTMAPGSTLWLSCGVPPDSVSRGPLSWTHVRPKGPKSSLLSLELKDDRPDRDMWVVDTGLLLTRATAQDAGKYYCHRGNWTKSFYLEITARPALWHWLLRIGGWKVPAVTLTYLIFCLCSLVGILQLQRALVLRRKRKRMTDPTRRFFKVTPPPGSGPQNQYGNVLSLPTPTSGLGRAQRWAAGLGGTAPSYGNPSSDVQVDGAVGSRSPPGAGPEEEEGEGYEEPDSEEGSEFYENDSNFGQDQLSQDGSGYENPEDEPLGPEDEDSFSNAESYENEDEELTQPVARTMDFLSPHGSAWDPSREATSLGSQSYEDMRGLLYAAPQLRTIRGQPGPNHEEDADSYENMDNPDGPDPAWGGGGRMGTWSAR

B1: F4.49.11 (antibody, human IgG1, V domains shown)
VH: DVQLRASGPGLVKPSQSLSLTCSVTGYSITSGYYWNWIRQFPGNKLEWMGCISYDGTNNYNPSLKNRISFTRDTSKNQFFLNLNSVTTEDSATYYCARRVYYRYDGVVDYWGQGTSVTVSS
VL: ENVLTQSPAIMSASPGEKVTMTCSASSSVSYIHWYQQKSSTAPKLWIYDTSKLASGVPGRFSGSRSRNSYSLTISSMEAEDVATYYCFQGSGYPLTFGSGTKLEIK
notes: human-murine chimeric antibody, human IgG1
- EC50 [1]: 3.1 nM
- Maximum mean fluorescence intensity [1]: 44200
- EC50 [2]: 3.08 nM
- Maximum mean fluorescence intensity [2]: 73500
- EC50 (human CD19 on Raji cells): 6.21 nM
- Maximum mean fluorescence intensity (human CD19 on Raji cells): 20300
- Proportion of chimeric antibody positive cells to B cells (%) at 1 nM [3]: 67%
- Proportion of chimeric antibody positive cells to B cells (%) at 10 nM [3]: 96%
- Proportion of chimeric antibody positive cells to B cells (%) at 100 nM [3]: 98%

B2: F4.78.1 (antibody, human IgG1, V domains shown)
VH: QVQIQQSGAELARPGASVKLSCKASGYTFTNYWMQWIKQRPGQGLEWIGAIYPGDGDTRYTQKFKGKATLTADKSSSTAYMQLSSLASEDSAVYYCAREEVWSPYGMDYWGQGTSVTVSS
VL: QIVLTQSPAIMSASPGEKVTITCSASSSVSYMGWFQQKPGTSPKLWIYSTSNLASGVPARFSGSGSGTSYSLTISRMEAEDAATYYCQQRSIYPLTFGAGTKLELK
notes: as for B1
- EC50 [1]: 0.51 nM
- Maximum mean fluorescence intensity [1]: 44300
- EC50 [2]: 0.73 nM
- Maximum mean fluorescence intensity [2]: 57000
- EC50 (human CD19 on Raji cells): 1.52 nM
- Maximum mean fluorescence intensity (human CD19 on Raji cells): 36900
- Proportion of chimeric antibody positive cells to B cells (%) at 1 nM [3]: 21%
- Proportion of chimeric antibody positive cells to B cells (%) at 10 nM [3]: 29%
- Proportion of chimeric antibody positive cells to B cells (%) at 100 nM [3]: 74%

B3: F4.82.11 (antibody, human IgG1, V domains shown)
VH: QVTLKESGPGILQASQTLSLTCSFSGFSLSTFGIGVGWVRQPSGKGLEWLAHIWWNDNKFFNTTLKNRLTLSKDPSNNQVFLKIASVDTADTATYYCARSRSALITTGLYAMDYWGQGTSVTVSS
VL: DIQMTQTPSSLSASLGDRVTISCRSSQDISNYVNWYQQKPDGTVKVLINYTSRLHSGVPSRFSGSGSGTDYSLTISNLEQEDIASYFCQQGFTLPYTFGGGTKLEIK
notes: as for B1
- EC50 [1]: 0.32 nM
- Maximum mean fluorescence intensity [1]: 26000
- EC50 [2]: 1.18 nM
- Maximum mean fluorescence intensity [2]: 66600
- EC50 (human CD19 on Raji cells): 0.85 nM
- Maximum mean fluorescence intensity (human CD19 on Raji cells): 16600
- Proportion of chimeric antibody positive cells to B cells (%) at 1 nM [3]: 97%
- Proportion of chimeric antibody positive cells to B cells (%) at 10 nM [3]: 98%
- Proportion of chimeric antibody positive cells to B cells (%) at 100 nM [3]: 99%

B4: F4.96.6 (antibody, human IgG1, V domains shown)
VH: EIQLQQSGPELVKPGASVKVSCKASGYAFSAYNIYWVKQSHGKSLEWIGYIDPYNSGTTYNQKFRGKATLTVDKSSNTAYMHLSSLTSEDSAVYYCTRDGDAMDYWGQGTSVTVSS
VL: EILLTQSPAIIAASPGEKVTITCSASSGVIYMNWYQQKPGSSPKIWIYDVSTLASGVPARFSGSGSGTSFSFTINSMEAEDVATYYCQQRSSYPYTFGGGTKLEIK
notes: as for B1
- EC50 [1]: 1.16 nM
- Maximum mean fluorescence intensity [1]: 52000
- Maximum mean fluorescence intensity [2]: 73
- EC50 (human CD19 on Raji cells): 0.74 nM
- Maximum mean fluorescence intensity (human CD19 on Raji cells): 25700
- Proportion of chimeric antibody positive cells to B cells (%) at 1 nM [3]: 1%
- Proportion of chimeric antibody positive cells to B cells (%) at 10 nM [3]: 2%
- Proportion of chimeric antibody positive cells to B cells (%) at 100 nM [3]: 1%

B5: F4.107.12 (antibody, human IgG1, V domains shown)
VH: EVQLQQSGPELVKPGASVKMSCKASGYTFTSYVLHWVRQKPGQGLEWIGYFNPYNDGTEYNEKFKGKAILTSDKSSSTAYMELNSLTSEDSAVYYCVGGTYYYGSSYPFAYWGQGTLVTVST
VL: DVVMTQISLSLPVSLGDQASISCRSSQSLIHSNGNTYLQWYLQKPGQSPKLLIYKVSNRLSGVPDRFSGSGSGTDFTLKISRVEAEDLGVYFCSQSTHVPYTFGGGTKLEIK
notes: as for B1
- EC50 [1]: 0.77 nM
- Maximum mean fluorescence intensity [1]: 59900
- EC50 [2]: 1.24 nM
- Maximum mean fluorescence intensity [2]: 69500
- EC50 (human CD19 on Raji cells): 0.6 nM
- Maximum mean fluorescence intensity (human CD19 on Raji cells): 26700
- Proportion of chimeric antibody positive cells to B cells (%) at 1 nM [3]: 20%
- Proportion of chimeric antibody positive cells to B cells (%) at 10 nM [3]: 35%
- Proportion of chimeric antibody positive cells to B cells (%) at 100 nM [3]: 67%

B6: F4.152.7 (antibody, human IgG1, V domains shown)
VH: QVQLQQPGAELVKPGASVKLSCKASGYTFTSYWMHWVKQRPGQGLEWIGEIDPSDSYTNYNQKFKGKATLTADKSSSTAYMQLSGLTSEDSAVYHCARGGDYDGYYVMDYWGQGTSVTVSS
VL: EIVLTQSPTTMAASPGEKITITCSASSSISSNYLHWYQQKPGFSPKLLIYRTSNLASGVPARFSGSGSGTSYSLTIGTMEADDVATYYCQQGSYIPRIFTFGSGTKLEIK
notes: as for B1
- EC50 [1]: 0.78 nM
- Maximum mean fluorescence intensity [1]: 58900
- Maximum mean fluorescence intensity [2]: 58
- EC50 (human CD19 on Raji cells): 0.76 nM
- Maximum mean fluorescence intensity (human CD19 on Raji cells): 26000
- Proportion of chimeric antibody positive cells to B cells (%) at 1 nM [3]: 2%
- Proportion of chimeric antibody positive cells to B cells (%) at 10 nM [3]: 2%
- Proportion of chimeric antibody positive cells to B cells (%) at 100 nM [3]: 3%

B7: F4.191.1 (antibody, human IgG1, V domains shown)
VH: QVQLQQPGAELVRPGASVKLSCKASGYTFTSYWINWVKQRPGQGLEWIGNIHPSDSYTNYNQKFKDKATLTVDKSSSTAYMQFSSPTSEDSAVYYCTREDYYYGSNYDAMDYWGQGTSVTVSS
VL: DIVMTQSHKFMSTSVGDRVNITCKASQDVGSSVAWYQQKPGQSPKLLIYWASTRHAGVPDRFTGSGSGADFTLTISNVQSEDLADYFCQQYSTYPLTFGAGTKLELK
notes: as for B1
- EC50 [1]: 0.34 nM
- Maximum mean fluorescence intensity [1]: 26500
- EC50 [2]: 1.14 nM
- Maximum mean fluorescence intensity [2]: 59600
- EC50 (human CD19 on Raji cells): 1.89 nM
- Maximum mean fluorescence intensity (human CD19 on Raji cells): 32300
- Proportion of chimeric antibody positive cells to B cells (%) at 1 nM [3]: 3%
- Proportion of chimeric antibody positive cells to B cells (%) at 10 nM [3]: 15%
- Proportion of chimeric antibody positive cells to B cells (%) at 100 nM [3]: 50%
